{
  "source": "patent US12491259B2",
  "about": "“Anti-variable MUC1* antibodies and uses thereof” (Minerva Biotechnologies Corporation, priority 2022, dated 2025)",
  "molecules": {"B1": {"name": "MNC2-Exatecan (conjugate)", "VH": "EVQLVESGGGLVKPGGSLRLSCAASGFTFSGYAMSWVRQAPGKGLEWVSTISSGGTYIYYPDSVKGRFTISRDNAKNSLYLQMNSLRAEDTAVYYCARLGGDNYYEYFDVWGKGTTVTVSS", "VL": "DIVLTQSPASLAVSPGQRATITCRASKSVSTSGYSYMHWYQQKPGQPPKLLIYLASNLESGVPARFSGSGSGTDFTLTINPVEANDTANYYCQHSRELPFTFGGGTKVEIKRT"}, "B2": {"name": "MN20A10: anti-MUC1* antibody, IgG2b isotype, CDRs SEQ ID NO 1-3 and 13-15 (antibody, V domains shown)", "VH": "EVMLVESGGGLVKPGGSLKLSCAASGFTFSTYAMSWIRQTPEKRLEWVASIGRAGSTYYSDSVKGRFTISRDNVRNILYLQMSSLRSEDTAMYYCARGPIYNDYDEFAYWGQGTLVTVSA", "VL": "NIMMTQSPSSLAVSAGEKVTMSCKSSQSVLYSSNQKNYLAWYQQKPGQSPKLLIYWASTRESGVPDRFTGSGSGTDFTLTISSVQAEDLAVYYCHQYLSSLTFGAGTKLELK"}, "B3": {"name": "MN20A10-Deruxtecan (conjugate)", "VH": "QVQLVESGGGLVKPGGSLRLSCAASGFTFSTYAMSWIRQAPGKGLEWVASIGRAGSTYYSDSVKGRFTISRDNAKNSLYLQMNSLRAEDTAVYYCARGPIYNDYDEFAYWGQGTLVTVSS", "VL": "EIVLTQSPATLSLSPGERATLSCKSSQSVLYSSNQKNYLAWYQQKPGQAPRLLIYWASTRESGIPARFSGSGSGTDFTLTISSLEPEDFAVYYCHQYLSSLTFGGGTKVEIKR"}},
  "key": {"[1]": {"test_system": "T47D wild-type breast cancer cells", "assay": "xCELLigence real-time killing assay (impedance)", "assay_type": "cell-based, human", "protocol": "FIGS. 49A-49J show traces from the real-time killing assays performed on an xCELLigence instrument. In this assay, impedance is measured in real-time. When the adherent cancer cells are killed and come off of the electrode surface, impedance (insulation) decreases. T47D wild-type breast cancer cells were plated onto multi-electrode-well plates at 5,000 cells per well and allowed to adhere and grow for 24 hours before the addition of ADCs. Either MNC2-MMAE, DAR 4.1, MN20A10-MMAE, DAR 5.8, MNC2-MMAF, DAR 3.7, MN20A10-MMAF, DAR 3.8, MNC2-Deruxtecan, DAR 7.2, or MN20A10-Deruxtecan, DAR 4.6, was then added to the cancer cells. […] Taxol and Triton are added as the positive killing control. […] Taxol and Triton are added as the positive killing control. […]\n(§1) To assess real-time killing of target cancer cells including breast cancer cells (T47D), non-small cell lung cancer cells (NCI-H1975) and pancreatic cancer cells (HP AF II) assays were performed on an xCELLigence RTCA MP Instrument (Agilent). Target Cancer cells were seeded onto a multi-electrode well plate at a density of 5000 cells/well (100 μL of a 50,000 cells/mL stock) and incubated for 24 hr in a 37° C./5% CO2 incubator. mAb MNC2 ADCs or mAb MN20A10-ADCs were prepared as a 2× solution in corresponding growth media and 100 μL of each concentration was added to target cells. As a positive control (100% cell killing) cells were treated with either 1% triton or 1 μM Taxol instead of ADC. After 40-120 hours incubation in a 37° C./5% CO2 incubator cell killing was assessed. In this assay, impedance is measured in real-time. When the adherent cancer cells are killed and come off the electrode surface, impedance (insulation) decreases.\n(§2) MNC2-ADCs and MN20A10-ADCs were also assayed for their ability to kill both low and high MUC1* expressing cells by monitoring killing in real-time using an xCELLigence instrument. In the xCelligence system, target cancer cells, which are adherent, are plated onto electrode array 96-well plates. Adherent cells insulate the electrode and increase the impedance. The number of adherent cancer cells is directly proportional to impedance. […] Therefore, increasing impedance reflects the growth of the cancer cells and decreasing impedance reflects the killing of the cancer cells.\nBreast cancer cell line T47D-wt expresses MUC1* at low to low-medium levels. Pancreatic cancer cell line HPAF II-wt expresses even lower levels of MUC1* and lung cancer cell line NCI-H1975 express still lower levels of MUC1*."}, "[2]": {"test_system": "NCI-H1975 lung cancer cells", "assay": "xCELLigence real-time killing assay (impedance)", "assay_type": "cell-based, human", "settings": "readout 0 to 120 hours, DAR 8.2 (FIG. 56)", "protocol": "FIG. 51A-51I show traces from the real-time killing assays performed on an xCELLigence instrument. In this assay, impedance is measured in real-time. When the adherent cancer cells are killed and come off of the electrode surface, impedance (insulation) decreases. NCI-H1975 lung cancer cells were plated onto multi-electrode-well plates at 5,000 cells per well and allowed to adhere and grow for 24 hours before the addition of ADCs. Either MNC2-MMAE, DAR 4.1, MN20A10-MMAE, DAR 5.8, MNC2-MMAF, DAR 3.7, MN20A10-MMAF, DAR 3.8, MNC2-Deruxtecan, DAR 7.2, or MN20A10-Deruxtecan, DAR 4.6, was then added to the cancer cells. […] Taxol and Triton are added as the positive killing control. […].\nFIGS. 56A-56D show traces from the real-time killing assays performed on an xCELLigence instrument. In this assay, impedance is measured in real-time. When the adherent cancer cells are killed and come off of the electrode surface, impedance (insulation) decreases. Here NCI-H1975 non-small cell lung cancer cells that express very low levels of MUC1*, were plated onto multi-electrode 96-well plates at 5,000 cells per well and allowed to adhere and grow for 24 hours before the addition of ADCs. Either MNC2-Exatecan, DAR 8.2, MNC2-Deruxtecan, DAR 4.0, MNC2-MMAE, DAR 4.1, or free Exatecan at 50 μM, was then added to the cancer cells.\nas §1, §2"}, "[3]": {"test_system": "cancer cells that express low levels of MUC1*", "assay": "xCELLigence real-time killing assay, summary over low expressers", "assay_type": "cell-based", "settings": "FIG. 54 and FIG. 56, DAR 8.2"}, "[4]": {"test_system": "T47D-MUC1* breast cancer cells", "assay": "xCELLigence real-time killing assay (impedance)", "assay_type": "cell-based, human", "protocol": "In this assay, impedance is measured in real-time. When the adherent cancer cells are killed and come off of the electrode surface, impedance (insulation) decreases. […] Either MNC2-MMAE, DAR 4.1, MN20A10-MMAE, DAR 5.8, MNC2-MMAF, DAR 3.7, MN20A10-MMAF, DAR 3.8, MNC2-Deruxtecan, DAR 7.2, or MN20A10-Deruxtecan, DAR 4.6, was then added to the cancer cells. […] Taxol and Triton are added as the positive killing control. […] Taxol and Triton are added as the positive killing control.\nIn this assay, impedance is measured in real-time. When the adherent cancer cells are killed and come off of the electrode surface, impedance (insulation) decreases. […] Either MNC2-Exatecan, DAR 8.2, MNC2-Deruxtecan, DAR 4.0, MNC2-MMAE, DAR 4.1, or free Exatecan at 50 μM, was then added to the cancer cells.\nas §1, §2"}, "[5]": {"assay": "Toxicities in animal studies of the ADC formats", "assay_type": "in vivo", "settings": "each antibody incorporated into several ADC formats", "source_text": "Exatecans have a high level of bystander effect, meaning that they can kill neighboring cells. […] It is not completely clear whether these side effects are due to the payload or to the target, HER2, which is also expressed on normal lung and normal heart. Recall that the first two patients treated with a HER2 targeting CAR T cell product died shortly after the infusion. […] More recently, yet another patient died after being treated with a different HER2-targeting ADC."}, "[6]": {"test_system": "DU145 hormone refractory prostate cancer cells", "assay": "PrestoBlue live/dead cell assay and brightfield photographs", "assay_type": "cell-based", "settings": "500 nM, 20× magnification"}},
  "note": "Marks after values point to notes of the source that are not given here.",
  "data": [
    {"molecule": "B1", "values": [
      {"measurement": "concentration as low as which target cancer cells are potently killed", "setting": "[1]; readout 0 to 120 hours, DAR 8.2 (FIG. 54)", "result": 56, "unit": "nM"},
      {"measurement": "concentration as low as which cancer cells are potently killed", "setting": "[2]", "result": 167, "unit": "nM"},
      {"measurement": "killing potency compared with MNC2-deruxtecan (DAR 4.0) and MNC2-MMAE (DAR 4.1)", "setting": "[3]", "result": "more potent killing of the low MUC1* expressing cancer cells"},
      {"measurement": "concentration as low as which cancer cells are potently killed", "setting": "[4]; readout 0 to 120 hours, MNC2-Exatecan DAR 8.2, MNC2-Deruxtecan DAR 4.0 (FIG. 55)", "result": "as low as 6.2 nM and even as low as 2.1 nM"}
    ]},
    {"molecule": "B2", "values": [
      {"measurement": "toxicities", "setting": "[5]", "result": "elicited no toxicities in animal studies"}
    ]},
    {"molecule": "B3", "values": [
      {"measurement": "cell morphology in photographs", "setting": "[6]", "result": "rounding up and dead cells"},
      {"measurement": "concentration showing potent / effective / comparable killing", "setting": "[1]; after 120 hours", "result": 167, "unit": "nM"},
      {"measurement": "concentration with significant killing", "setting": "[1]; by 120 hours, DAR 4.6", "result": 167, "unit": "nM"},
      {"measurement": "ADC concentration at which essentially all (near total) tumor cells were killed", "setting": "[4]; readout 120 hours post ADC addition", "result": 167, "unit": "nM"}
    ]}
  ]
}
